Experimental data taken from a protein production outcome set (Wang et al. 2014).

Assay: label from the status in PepcDB records
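Note: failed if final PepcDB status was selected cloned or expressed and not failed if soluble or beyond.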

| Sequence | protein production |
| --- | --- |
| MNLFRKISEKLKSYEDWVTEANYYLDEGIYDKAVECYLKALEKKNTNPIDWFNLAYALYHLEKYDSALEAINEALKISPSNIYFAYLKGLIHYKRGEIILAYKYLKKASEKIKNEELFEILGDISVKYGRYEEALKYYLKSYKMANSKNLNALFKAGKIYLLFGDIDKAYDAFNEILQQNPSHECKKIVECMENVVNAINSYEDLNNGLTMIKNKDYIGALKIFNKVLQIDENSDISYYYKSVIAEIFEEYKKALEYIDKSISIFNRSLYYAKKGDILYKLGDEEGAIEAYNKAIKLNSQNPYAYFGLAILYYRKGELEKSSNFFDKVLETYLEELSEEDISALNLYSLIGKAETTGIPKYYHEAMKYVDNLINLENSSRWWYVKGYIYYKLGNYKDAYESFMNALRVNPKDISTLKSLAIVLEKSGKIDEAITTYTKILKIVNSLQFTCEIDNILEKLRSRKPTNLEIPSVLFDIPVMYHKPNITCFYASNLWKYMANNNPIGAYIYLSFIESYISLDEISQMVNDIKSKLSLEMYRYCELIDDYKSDESVLMQIKELLQKLGCML | failed |
| MLSVFLEIIYERQLRKINLKILTDFINLIKEESLSNGAEFIQVQGGFYFLFKKKSIAYAFSTARFLYNVNKILISYKNKISEVRCITDYYEEDVSNEALFESLSLYKKQLIPEMGMFASREAANKLSKYIDFNETDSSILLCNAFKFFENINLTSNKNADKNASIILHRNDNYFWSIYNFILANPLDNDSLKAMSNEDRISFLATKNVYIYLKKHRFSKDMPQYFIDAFLTNAAIYLKNYIKKQNGRRSVKVLIDNLNDKKNLDEAEKIYAVNKYMEIEALDSSLPSIYNIPDDLLQLIYIILVSSKYFFYDEITDFLVSLNKSKAFFDDVYAWMYSMGIILVENNIYAVPYGLPEIIERRINLSKNMVDSNITEYLWAKYKKGILNANSDAEKIFDSLNFKCKPDFLLASIFHNYSDSSIEGLDLKKYKNEIFYDALKYYQNSIIANIDDSTAKSYAYLKTAIGFFQENKLESGEYRAFSLLAFFNLMQNKISDAITYFSYALDNAEHSHDTSFICDALFNISIVYFLQNNLKQSITFLDRLAAAVDEYFEQDWKIPYLFMKGRVYLQIGEFNKAADSFRMASDFADLYFDKIEPLCKSWYGRSLIYMGQIKNGQEILIKYIDYTDDALLFLLESFLFYPVLNNDFEKMDLDISSIYSAYNNSGLTDFINLKSGFSIAEDLIWSNIYDMSIGKKMFDAFYNYYNCKINFSKMYDIEECKILLSNLEASAVESLYQNDPYSSLYMYLCYDLSVKLYGENSSQTIAYLSKAFKSMQKNVLAIGENDIRDKYMQNNLWNSKLFKVAKNQKLI | failed |
| MAFRKPDEIAEAAIEAGMKKIKLPLPSLLVLGFLGGAFIALGYLLDIRVIGDLPKEWGSLSSLIGAAVFPVGLILVVLAGAELITGNMMSVAMALFSRKISVKELAINWGIVTIMNLIGALFVAYFFGHLVGLTETGPYLEKTIAVAQGKLDMSFGKVLISAIGCNWLVCLAVWLSFGAQDAAGKILGIWFPIMAFVAIGFQHVVANMFVIPAAIFAGSFTWGQFIGNIIPAFIGNVIGGAVFVGLIYFIAYHKKDRSRKEMKQVS | failed |
| MPERVKRKRYALVGTGNRGTTMWGRELLAGWSDYVELVGICDLNLMRAERARAMMGSNAPLYDDFDRMMVEQRPELVIVCTPDDTHDDIIIRALEGGADVISEKPMTTTPEKIDRIRAAEAKSGRRVDVSFNYRFSPTAARIKELIDDGAIGTVTSVDFHWYLDNQHGADYFRRWHAFTEHSGSLFVHKATHHFDLLNWYLDSDPVEVKGFGQLLHYGKNGPFRGTRCRTCPHKDECDYFMDLGADPFLDALYEDPSSIDGYMRDACVFREEIDIPDTMSASIRYASGVQVSYSLNTYMPIEGHHIAFNGHKGRIEMRQYEKQPWAEPPADEILVVKSFGGGVERIWVPHEPGGHYGGDNRMRDMIFKPGSNDRLRQRAGSRAGAMSVLCGVAALKSARDGGSQPIKSLPL | failed |
| MKIIFSASPANRAAAYALRQAVFVEERGISADVEFDVKDTDQCEYAVLYLQPDLPITTLRLEPQADHVMRFGRVCTRKAYRGHGWGRQLLTAAEEWATQRGFTHGEIHGELTAQRFYELCGYRVTAGPYDEDGAPVVIMHKQ | failed |
| MSLESLFQHIIFTEHQAEESRRLMREVRSEITRCREKIKKATEELNEEKIKLESKVQQFFEKSFFLQLLKAHENALEKQYSEITNHRNMLLQTFEAIKKQMIEEEDKFIKEITDFNNDYEITKKRELLMKENVKIEISDLENQANMLKSEMKSMEHDSSQLNELQKQKSELIQELFTLQRKLKVFEDEENESICTTKYLEAEKIKISEKPQNDTECLRLKKELELYKEDDMESVYEALQTEIEFLELTLAQKDLQESK | failed |
| MYLNPKLSYMQFFMGFLFVITFILATFNICSYLVAIVCMALLNLTFVIGAFQQKQYTSFVIALVMSFSFSIVAIVFYIK | failed |
| MRLSAEQVVEVLRAAGESTRLRLLALLAAEELSVLELCRILDQSQPRVSRHLKLLAEAGLVERFPDGAWVFYRLAAKSPGRLLVEQALDLIDEGDETVQSDADKLAAVRAERSTDAQAYFARNAARWNEIRSLYVDEAEVEAAILRATGEGPFDEMVDLGAGAGRMLTLLGKRAANALGLDLSQQMLNIARDEVSKAGLTACELRHGDIFRTGLPGGCADLVTVHQVLHYLTDPATAVAEAARLVTPGGLLLIADFAPHGHEFLREVHQHRRLGFDDAEIVAWLQAAGLVLESNIALPPATAEGLTVKIWTARRPGKASLERSAA | failed |
| MNLRLAAALCAALSLCAVLAVPANFPALGGDARLTLAVFALATCAWIGTPIDDTYIALGAGLALTATGVISSDTLFGTLGEDTVWLLICAFVLAAAVARTGLAGRAAAFLVGGARTVRQLVHLTTAALVVTAFAMPATSGRAALALPVFLALAKVLADRKRLVVMLALLFPTVILLSAVATLIGAGAHLITVSVLWEATGDRIGFTQWLLLGLPLAVASSHLAAETVLLTTTRRADRAGPVRITAEEIQRHSESPVTGPWTQAEKRCALLLATVVALWCSEPLHRVSPAVVALIGAVVASSPALGTVRLKDALKTVPWSLLLFMAATMAMGVALADSGAAGWLVSGLPADVAPAVFLGVVVAVSTAAHLVLQSRSARSSVLVPLVIAAAVGAGVNPVAAALASTAAAGFCHTLPASAKPVTLFSDVPGVPTYTPRDLLRLSAVLAPLTALLVLFFAAAVWPLLGVPVTR | failed |
| MRHITTHDAPATGLRSIADTSWHVRGACHGMDIEDADAVFFPGPRDHEEIAEAKELCGWCPVRRACLDFALENVLKEGVWGGLTEAERRPL | failed |
| MNRFNYIGMLAYVALSMSSCDDSFDVSSKADGVLAVSQEGFNTLQSYNVGEKYTADLWIQQGGLKSTASVVSFSVDKALLDSMNIADGTSYELLPADCYQLTKSSVDIPANERLLKGELTYDPAKIQELSGYDHLKYVLPLRATSSGMPFVSGRSVLLLGFKVSEPIVTIMNAGVEEINLAEVKELPVQIGVPFTNKWEISCRLESRQSVIDAYNTAHGTYFSMLPSDAYVTPETPILHSGVNQVTATYKLKDDILPGNYMLPVQIAEVTSDATIRADKDVYAAYSIIKEGDKLSKTDWKIVSFTTEEASGEGSNNGHAKHLIDGNIETFWHSRWQGGSDPLPYEIIIDMNHRVKIAQIELLPRGRGSNNPIKVVRFEASEDGTNWESIGQFGFTNQDAALKYYVKSSTARYIKLVIPDGVGNGTVAAIRELDVRGTVVN | failed |
| MMVPHLTTALTGPLLTLEKRLLDNMPRIEHWFRSQWQEYGAPFYASVDLRNAGFKLAPVDTNLFPGGFNNLNPDFLPLCIQAAMVAVEKICPDARRLLLIPENHTRNTFYLRNVHALTHILRQAGLEVRIGSIAPEITAPTFLETHDGHSILLEPVRRKANRLELDNFDSCAILLNNDLSGGIPDILQGLEQSLIPPLHAGWATRRKSNHFTAYDRVVEEFAPLIDIDPWLLNPYFDTCGGLDFHARLGEEQLAEKVDSLLAKIRRKYAEYGVKQEPFVIVKADAGTYGMGIMTVKSADDVRDLNRKQRNKMSVVKEGLKVSEVILQEGVYTFEHLKDAVAEPVIYMMDHFVVGGFYRVHTSRGADENLNAPGMHFEPLTFETPCSTPDCAGAPDAAPNRFYAYGVVARLALLAATIELQETDPDLLDERT | not failed |
| MSGDEAVAAPVVPPVAEAAVIPEDMDVSTALELTVRKSRAYGGVVRGLHESAKLIEKRNAQLCVLAEDCNQPDYVKLVKALCADHSIKLLTVPSAKTLGEWAGLCKIDSEGNARKVVGCSCLVIKDFGEETTALNIVKKHLDSN | failed |
| MRLTSKGRYAVTAMLDVALNSEAGPVPLADISERQGISLSYLEQLFSRLRKNGLVSSVRGPGGGYLLGKDASSIAVGEVISAVDESVDATRCQGKGGCQGGDKCLTHALWRDLSDRLTGFLNNITLGELVNNQEVLDVSGRQHTLEHHHHHH | not failed |
| MTMLLSIIVPTFKPQKTYFEECLFSLFNQTMFHYLYEVIVVLNGDIDTQYTDMILDIFAYKPAGLYCRLIKTDQAGVSNARNLGIDAAKGQYIGFVDDDDIVSSDYLEELCKISSRNIVGVSNVHTFRKTIEEKEDNFFACRIIQQRECQYSLFRNRAILAFPVAKLIHRDIIGNRRFNPRFKNGEDALFMTEISDLIGGFRFTKEYTTYYVRERAGSASRRPLKRGQLCWDTFMLIKAYVSIYLSSPFSYNFLLFASRIPGSIKGAIKLSRNTAFFLEHHHHHH | failed |
| NDALRVMAGDLQRSEEKFRSMTDAAHDAVFMLNNEGKIVYRNTAAETLFGFSREEYGDQLFWELISPEFADFNIHDVCEMMPDEALPDFNSETRVRQIEGLRKDGSLVPIEISRGCVHIESVHHTVVIARDIT | failed |
| PEEQRQKLPDITAADPLEYKKQLLKLAISRIVFMRRFIADSLYYLPDVFFVTDKDNNIILLNKAAENLTAELGAQYHYRMPISTILNHLHNEEGHRINFDQVRNNEINSQCYAENGRAFDLRIAACRQVINQPDGWLIMLIDISAVKSAEEQRQRILHLLSHDMRSPQISILALIDRFSRTSC | failed |
| SEPPKMNPVVEPLSWMLGTWLSDPPGAGTYPTLQPFQYLEEVHISHVGQPMLNFSFNSFHPDTRKPMHRECGFIRLKPDTNKVAFVSAQNTGVVEVEEGEVNGQELCIASHSIARISFAKEPHVEQITRKFRLNSEGKLEQTVSMATTTQPMTQHLHVTYKKVTP | not failed |
| MGKVYRTSQMAASILVNAIYAMKNFPITLVNTLLSPLSFLLVITLASHGRLLSVSVGGALIMSMISSGIGLQGDLSHLKNDFKLQDMVVSSPTTASVYLIGMAISEIVYSIPALAVLGVHASIYIHTTVVGVFQIVAVMVLMFSFSILLGFTLATITYDIIQSWAFSGIISTLISTIPPVYYPITYIPMPFRYAAYASPTTYGAELVQSAIGFVHLSGASFIVDWVILIMINVVFFIIALKKARWREI | failed |
